Biological target: T1, cyan fluorescent protein (CFP)-SR-A (class A scavenger receptor) (human, UniProt P21757 1-451)
T1 sequence (looked up): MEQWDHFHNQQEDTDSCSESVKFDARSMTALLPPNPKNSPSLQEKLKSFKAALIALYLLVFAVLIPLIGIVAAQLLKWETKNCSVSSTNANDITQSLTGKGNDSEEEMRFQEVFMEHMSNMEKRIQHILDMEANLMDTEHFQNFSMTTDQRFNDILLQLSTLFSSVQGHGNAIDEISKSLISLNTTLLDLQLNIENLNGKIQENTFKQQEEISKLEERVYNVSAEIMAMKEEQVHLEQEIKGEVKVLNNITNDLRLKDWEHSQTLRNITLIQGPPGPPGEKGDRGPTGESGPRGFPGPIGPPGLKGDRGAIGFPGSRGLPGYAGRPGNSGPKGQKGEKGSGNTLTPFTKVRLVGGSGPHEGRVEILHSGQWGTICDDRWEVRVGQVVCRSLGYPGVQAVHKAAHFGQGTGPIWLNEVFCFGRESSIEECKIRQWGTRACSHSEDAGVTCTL
Assay: FRET or BRET

- FR (mean FRET ratio): 2.17
B1: yellow fluorescent protein (YFP)-GRP78 (78 kDa glucose-regulated protein) (natural protein)
chain: not shown

— article PMC4102840 (Journal of Biomedical Research, 2014)
